Like-named read-outs stand apart in the source and are kept apart here. Numbered stars: 1 amine (or outer) side, 2 acyl side, 3 side chain; on linkers, the order of the positions; unused ones are H or OH. Bridge positions count the residues as written; N and C are the ends. Square brackets hold non-standard residues; d marks the D form. Peptide text beside a SMILES is read from it. Adda = CO[C@@H](Cc1ccccc1)[C@@H](C)/C=C(C)/C=C/[C@H](N[*:1])[C@H](C)C(=O)[*:2]; dAsp(3S-Me) = C[C@H](C(=O)[*:3])[C@@H](N[*:1])C(=O)[*:2]; d(γGlu) = O=C(O)[C@@H](CCC(=O)[*:2])N[*:1]; NMeDha = C=C(NC)C(=O)O
Tests used:
PP1α [1] = biological target: T1, PP1α (Homo sapiens, UniProt P62136); settings: cited from earlier work
Target sequence in this assay (P62136 2-330): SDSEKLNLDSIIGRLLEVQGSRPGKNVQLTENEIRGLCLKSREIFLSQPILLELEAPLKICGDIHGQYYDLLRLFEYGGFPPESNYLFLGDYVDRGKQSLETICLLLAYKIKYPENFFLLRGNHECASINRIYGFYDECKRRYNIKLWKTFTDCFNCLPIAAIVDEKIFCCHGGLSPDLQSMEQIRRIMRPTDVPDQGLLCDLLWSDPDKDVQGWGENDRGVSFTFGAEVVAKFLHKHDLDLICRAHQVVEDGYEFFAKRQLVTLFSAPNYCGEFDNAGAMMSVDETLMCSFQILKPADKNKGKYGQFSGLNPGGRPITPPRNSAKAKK

PP1α [2] = biological target: T1, PP1α; settings: cited from earlier work; remark: listed apart in the source
Target sequence in this assay (P62136 2-330): as above

PP1α7–330 = biological target: T2, PP1α7–330 (Homo sapiens, UniProt P62136); assay: Pulldown assay with PP1α; type: binding; settings: compared to wild-type spinophilin; in words
T2 construct: PP1α7–330 and PPZ1cat were purified by the method described above; made in house; host or cells: E. coli
T2 sequence (P62136 7-330): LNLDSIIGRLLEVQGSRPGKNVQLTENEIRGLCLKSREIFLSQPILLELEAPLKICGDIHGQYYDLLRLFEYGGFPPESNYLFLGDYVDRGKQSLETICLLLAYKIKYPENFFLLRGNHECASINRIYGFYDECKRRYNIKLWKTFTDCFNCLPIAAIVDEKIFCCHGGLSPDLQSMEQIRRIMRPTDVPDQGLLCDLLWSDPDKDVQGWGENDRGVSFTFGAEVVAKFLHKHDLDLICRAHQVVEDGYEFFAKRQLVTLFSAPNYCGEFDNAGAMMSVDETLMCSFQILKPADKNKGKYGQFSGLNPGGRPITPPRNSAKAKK
Protocol: (§1) GADD34_552–567 was purchased. PNUTS394–433 and spinophilin417–602 were purified according to a method described previously ([19], [27]). […]. PP1α7–330 and PPZ1cat were purified by the method described above but retained the His tag. After SEC (20 mM Tris [pH 8.0], 500 mM NaCl, 0.5 mM TCEP, 1 mM MnCl2), 50% (vol/vol) glycerol was added to both PP1α7–330 and PPZ1cat. The final concentrations of the proteins were adjusted to 5 µM. […] of each PP1 regulator was added into 500 µl of PP1α7–330 or PPZ1cat. The mixture was incubated under rocking (4°C) for 60 min to allow for complex formation. A 15-μl bed volume of Ni-NTA resin (GE Healthcare) was added into tubes, and the mixture was incubated at 4°C for 60 min. The beads were pelleted by centrifugation (2000 × g) and washed three times with 500 µl of SEC buffer. Forty microliters of SDS loading buffer was added to the beads, and the samples were boiled at 80°C for 5 min and analyzed on NuPAGE 4 to 12% bis-Tris gels. Gels were stained overnight with SYPRO ruby protein gel stain (Life Technologies) according to the manufacturer’s protocols and scanned using a Typhoon 9410 laser scanner (GE Healthcare) with an excitation wavelength of 457 nm and emission filter of 610 nm following destaining. Densitometry was performed using ImageQuant TL 7.0 software for quantification of the band intensity.

PPZ1cat [3] = biological target: T3, PPZ1cat (Candida albicans, UniProt C4YM68); assay: Pulldown assay with PPZ1cat; type: binding; settings: for Less binding in pulldown by PPZ1 compared to PP1α: densitometry of the gel
T3 sequence (C4YM68 entry or part of it): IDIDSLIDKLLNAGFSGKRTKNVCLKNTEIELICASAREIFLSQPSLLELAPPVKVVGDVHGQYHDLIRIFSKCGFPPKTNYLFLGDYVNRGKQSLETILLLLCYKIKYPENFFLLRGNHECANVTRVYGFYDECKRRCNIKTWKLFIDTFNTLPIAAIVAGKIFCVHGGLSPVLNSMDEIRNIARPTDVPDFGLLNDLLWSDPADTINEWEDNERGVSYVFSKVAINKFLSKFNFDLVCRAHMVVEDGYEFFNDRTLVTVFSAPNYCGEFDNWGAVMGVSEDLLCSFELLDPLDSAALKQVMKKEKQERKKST
Protocol: as §1

PP1α [4] = biological target: T1, PP1α; assay: Phosphatase inhibition assay, pNPP substrate, PP1α; type: biochemical; parameters: made in house; host or cells: E. coli
Target sequence in this assay (P62136 whole entry): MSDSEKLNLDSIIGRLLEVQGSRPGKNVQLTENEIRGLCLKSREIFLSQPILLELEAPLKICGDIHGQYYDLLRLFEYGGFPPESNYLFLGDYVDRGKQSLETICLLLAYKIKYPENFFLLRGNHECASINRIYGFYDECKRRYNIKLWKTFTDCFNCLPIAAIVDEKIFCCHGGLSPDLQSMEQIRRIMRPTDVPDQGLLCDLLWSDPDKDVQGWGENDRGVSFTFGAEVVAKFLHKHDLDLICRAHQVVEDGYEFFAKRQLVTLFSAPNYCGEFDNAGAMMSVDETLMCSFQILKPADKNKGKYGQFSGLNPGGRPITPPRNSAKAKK

PPZ1FL = PPZ1FL (Candida albicans, UniProt C4YM68); type: biochemical
PPZ1FL, sequence (C4YM68 entry or part of it): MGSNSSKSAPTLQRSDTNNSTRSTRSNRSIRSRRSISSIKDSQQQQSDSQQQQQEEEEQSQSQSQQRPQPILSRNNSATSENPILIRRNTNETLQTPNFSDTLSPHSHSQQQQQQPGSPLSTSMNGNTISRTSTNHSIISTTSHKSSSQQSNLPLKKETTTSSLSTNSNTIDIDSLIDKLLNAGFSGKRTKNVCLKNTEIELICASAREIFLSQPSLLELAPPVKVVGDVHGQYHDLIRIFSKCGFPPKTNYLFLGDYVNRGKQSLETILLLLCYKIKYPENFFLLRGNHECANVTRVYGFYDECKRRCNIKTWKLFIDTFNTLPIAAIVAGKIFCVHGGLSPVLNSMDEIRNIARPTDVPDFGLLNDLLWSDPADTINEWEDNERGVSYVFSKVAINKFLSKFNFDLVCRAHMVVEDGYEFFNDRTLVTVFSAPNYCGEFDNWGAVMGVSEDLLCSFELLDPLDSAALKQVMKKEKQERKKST

PPZ1cat [5] = biological target: T3, PPZ1cat; type: biochemical
PPZ1cat [6] = biological target: T3, PPZ1cat; assay: Phosphatase inhibition assay, pNPP substrate, PPZ1cat; type: biochemical
PP1c = type: biochemical, rabbit
[7] = biological target: T4, full-length C. albicans PPZ1 (Candida albicans) (UniProt Q59U06)
T4 sequence: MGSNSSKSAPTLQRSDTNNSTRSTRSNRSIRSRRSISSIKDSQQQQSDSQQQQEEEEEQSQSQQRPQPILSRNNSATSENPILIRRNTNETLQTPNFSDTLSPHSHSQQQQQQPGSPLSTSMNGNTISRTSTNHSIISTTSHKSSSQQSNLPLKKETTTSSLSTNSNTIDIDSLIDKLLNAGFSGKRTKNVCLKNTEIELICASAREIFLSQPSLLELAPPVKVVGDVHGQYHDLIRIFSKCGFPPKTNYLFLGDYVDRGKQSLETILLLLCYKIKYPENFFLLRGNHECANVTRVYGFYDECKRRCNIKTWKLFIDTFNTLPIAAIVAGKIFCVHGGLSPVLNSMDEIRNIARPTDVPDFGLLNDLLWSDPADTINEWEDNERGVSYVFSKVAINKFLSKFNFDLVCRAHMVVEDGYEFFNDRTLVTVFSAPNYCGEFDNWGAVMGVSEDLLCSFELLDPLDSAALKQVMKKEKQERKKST

[8] = biological target: C. albicans PPZ1 C-terminal catalytic domain (aa 171 to 484), His6 tag removed (Candida albicans) (UniProt Q59U06)
[9] = biological target: catalytic subunit of rabbit skeletal muscle protein phosphatase 1 (rabbit) (UniProt P62139)
Target sequence in this assay (P62139 whole entry): as the sequence (P62136 whole entry) above

[10] = biological target: human PP1α(7-330), His tag retained (human) (UniProt P62136)
human PP1α(7-330), His tag retained (human), sequence (P62136 7-330): as the sequence (P62136 7-330) above

PP1α [11] = biological target: T1, PP1α; settings: cited from earlier work; remark: listed apart in the source
Target sequence in this assay (P62136 2-330): as the sequence (P62136 2-330) above

[12] = biological target: T5, C. albicans PPZ1 C-terminal catalytic domain (aa 171 to 484), His6 tag removed (Candida albicans, UniProt Q59U06 169-482); assay: ITC; settings: both partners purified
T5 construct: also called PPZ1cat; CaPPZ1
T5 sequence: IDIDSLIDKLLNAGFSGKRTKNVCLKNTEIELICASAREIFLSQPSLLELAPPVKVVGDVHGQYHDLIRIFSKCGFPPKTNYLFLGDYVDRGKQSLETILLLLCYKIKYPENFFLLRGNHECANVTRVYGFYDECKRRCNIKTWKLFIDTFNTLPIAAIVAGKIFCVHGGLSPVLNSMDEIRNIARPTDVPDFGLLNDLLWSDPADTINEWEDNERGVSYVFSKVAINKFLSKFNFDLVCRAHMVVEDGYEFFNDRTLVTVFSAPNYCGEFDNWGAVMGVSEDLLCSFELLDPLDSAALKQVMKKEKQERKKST

[13] = biological target: T4, full-length C. albicans PPZ1 (Candida albicans); remark: listed apart in the source
[14] = biological target: C. albicans PPZ1 C-terminal catalytic domain (aa 171 to 484), His6 tag removed (Candida albicans) (UniProt Q59U06); remark: listed apart in the source
[15] = biological target: catalytic subunit of rabbit skeletal muscle protein phosphatase 1 (rabbit) (UniProt P62139); remark: listed apart in the source
Target sequence in this assay (P62139 2-330): as the sequence (P62136 2-330) above

PNUTS 394-433 (from UniProt Q96QC0)
Kd (PP1α [1]): 9.3 nM

spinophilin 417-602 (from UniProt O35274)
Kd (PP1α [2]): 8.7 nM

SpinoR469E: spinophilin417–602 variant with Arg motif mutation R469E
Amount of spinophilin variant pulled down by PP1α (PP1α7–330): reduces the amount of spinophilin pulled down

PNUTS394–433: minimal PP1-binding domain of PP1 regulator PNUTS (RVxF-ΦΦ-Arg) (RKRKTVTWPEEGKLREYFYFELDETERVNVNKIKDFGEAA)
Less binding in pulldown by PPZ1 compared to PP1α (PPZ1cat [3]): ~ 85%

spinophilin417–602: minimal PP1-binding domain of PP1 regulator spinophilin
Less binding in pulldown by PPZ1 compared to PP1α (PPZ1cat [3]): ~ 85%

C=C1C(=O)N[C@H](C)C(=O)N[C@@H](CC(C)C)C(=O)N[C@@H](C(=O)O)[C@H](C)C(=O)N[C@@H](CCCNC(=N)N)C(=O)N[C@@H](/C=C/C(C)=C/[C@H](C)[C@H](Cc2ccccc2)OC)[C@H](C)C(=O)N[C@@H](C(=O)O)CCC(=O)N1C [MC, microcystin-LR] (R[Adda][d(γGlu)][NMeDha][dA]L[dAsp(3S-Me)]-OH; lactam N-7)
IC50 (PP1α [4]): 4.4 nM
IC50 (PPZ1FL; read-out: IC50 of MC): 0.96 nM
IC50 (PPZ1cat [5]; read-out: IC50 of MC): 0.72 nM
IC50 (PPZ1cat [6]): 11.8 nM
IC50 (PP1c): 0.43 nM

microcystin-LR (peptide)
inhibition of phosphatase activity, 32P-labeled MLC20 (pMLC) substrate, IC50 [7]: 0.96 nM
inhibition of phosphatase activity, 32P-labeled MLC20 (pMLC) substrate, IC50 [8]: 0.72 nM
inhibition of phosphatase activity, pNPP substrate, IC50 [8]: 11.8 nM
inhibition of phosphatase activity, 32P-labeled MLC20 (pMLC) substrate, IC50 [9]: 0.43 nM
inhibition of phosphatase activity, pNPP substrate, IC50 [10]: 4.4 nM

GADD34 552-567 (from UniProt O75807)
Kd (PP1α [11]): 62 nM

SpinoR469D: spinophilin417–602 variant with Arg motif mutation R469D
Amount of spinophilin variant pulled down by PP1α (PP1α7–330): reduces the amount of spinophilin pulled down

GADD34_552–567: purchased peptide, minimal PP1-binding domain of regulator GADD34 with RVxF and ΦΦ motifs (KARKVRFSEKVTVHFL)
Binding in pulldown by PPZ1cat compared to PP1α (PPZ1cat [3]; in words): less effectively

B1: I-2: inhibitor-2, a specific protein inhibitor of PP1; recombinant 6×His-tagged (protein)
chain: AASTASHRPIKGILKNKTSTTSSMVASAEQPRGNVDEELSKKSQKWDEMNILATYHPADKDYGLMKIDEPSTPYHSMMGDDEDACSDTEATEAMAPDILARKLAAAEGLEPKYRIQEQESSGEEDSDLSPEEREKKRQFEMKRKLHYNEGLNIKLARQLISKDLHDDDEDEEMLETADGESMNTEESNQGSTPSDQQQNKLRSS
IC50 (PPZ1FL; PPZ1FL, includes N-terminal IDP domain, read-out: IC50 of I-2): 278 nM
IC50 (PPZ1cat [5]; PPZ1cat, recombinant I-2, read-out: IC50 of I-2): 7 nM

KARKVRFSEKVTVHFL (peptide, UniProt O75807 552-567, looked up, also called G34) [GADD34(552-567) peptide]
Kd [12]: 1150 ± 90 nM

B2: recombinant 6×His-tagged inhibitor-2 (natural protein)
chain: MAASTASHRPIKGILKNKTSTTSSMVASAEQPRGNVDEELSKKSQKWDEMNILATYHPADKDYGLMKIDEPSTPYHSMMGDDEDACSDTEATEAMAPDILARKLAAAEGLEPKYRIQEQESSGEEDSDLSPEEREKKRQFEMKRKLHYNEGLNIKLARQLISKDLHDDDEDEEMLETADGESMNTEESNQGSTPSDQQQNKLRSS
inhibition of phosphatase activity by increasing concentrations of I-2, IC50 [13]: 278 nM
inhibition of phosphatase activity by increasing concentrations of I-2, IC50 [14]: 7 nM
inhibition of phosphatase activity by increasing concentrations of I-2, IC50 [15]: 12 nM

— paper PMC4999541 (mBio, 2016)
